B1: F1249-18-2 (antibody, from a related filing, V domains shown)
VH: QVQLQQPGAELVKPGASVKLSCKASGYTFTSYWMHWLKQRPGQGLEWIGMIHPNSDITNYNEKFKNKATLTVDKSSSTAYMQLSSLTSEDSAVYYCARSGDYYAMDYWGQGTSVTVSS
VL: SIVMTQTPKFLLVSAGDRVTITCKASQSVSNDVAWYQQKPGQSPKLLIYYASNRYTGVPDRFTGSGYGTDFTFTISTVQAEDLAVYFCQQDYSSPPTFGGGTKLEIKR
B2: F1245-4-1 (antibody, from a related filing, V domains shown)
VH: QVQLQQPGAELVKPGASVKLSCKASGCTFTSYWMHWVKQRPGQGLEWIGMIHPNSDNTNYNEKFKSKATLTVDKSSSTAYMHLSSLTSEDSAVYYCATHYYDYVDYWGQGTTLTVSS
VL: B1 VL with S1N, P96W
B3: F1245-5-1 (antibody, from a related filing, V domains shown)
VH: QVQLQQPGAELVKPGASVKLSCKASGYTFISYWMHWVKQRPGQGLEWIGMIHPNSGSTHYNEKFKSKATLTVDKSSSTAYMQLSSLTSEDSAVYYCARGGVTPVAYWGQGTLVTVSA
VL: B1 VL with P96W
B4: F1245-6-2 (antibody, from a related filing, V domains shown)
VH: B3 VH with I30T, H59N
VL: B1 VL with D60Y, P96W
B5: F1249-5-1 (antibody, from a related filing, V domains shown)
VH: B1 VH with D73A, S99L
VL: B1 VL with A34T
B6: F1232-37-2 (antibody, from a related filing, V domains shown)
VH: VQLQQSGPELVRPGESVKISCKGSGYTFTDYAIHWVKLSHAKSLEWIGVISIYYDDTNYNQKFKGKATMTVDKSSSTAYLELARLTSEDSAIYYCARRRDSSGPYAMDYWGQGTSVTVSS
VL: DIVLTQSPASLAVSLGQRATISCRASESVDSYGNSFMHWYQQKPGQPPKLLIYRASNLESGIPARFSGSGSRTDFTLTINPVEADDVATYYCQQSNEDPYTFGGGTKLEIKR
B7: F1249-20-1 (antibody, from a related filing, V domains shown)
VH: QVQLQQSGAELVRPGVSVKISCKGSGYTFTDYAMHWVKQSHAKSLEWIGVISTYYGDTSYNQKFKGKATMTVDKSSSTAYMELARLTSEDSAIYYCARAEDYDPWFAYWGQGTLVTVSA
VL: B6 VL with H38Y, N96D, Y100L, G104A, I110L
B8: F1249-24-1 (antibody, from a related filing, V domains shown)
VH: B7 VH
VL: B6 VL with N96D, Y100L, G104A, I110L
B9: F1249-30-1 (antibody, from a related filing, V domains shown)
VH: B7 VH with T69A, E89D
VL: B6 VL with N96D, Y100L, G104A, I110L
B10: F1246-1-1 (antibody, from a related filing, V domains shown)
VH: EVQLVESGGDLVKPGGSLKLSCAASGFTFSSYGMSWVRQTPDKRLEWVATISNGGTYTYYPDSVKGRFTISRDNAKNTLYLQMSSLKSDDTAMYYCGRLRDYYAMDYWGQGTSVTVSS
VL: B6 VL with Y100W
B11: F1249-3-2 (antibody, from a related filing, V domains shown)
VH: EVQLVESGGGLVKPGGSLKLSCAASGFTFSSYGMSWVRQTPDKRLEWVATISSGGSYTYYSDSVKGRFTISRDNAKNNLYLQLSSLKSQDTAIYYCARDSGYFDYWGQGTTLTVSS
VL: B6 VL with D1N, R54L, I62V, N80D, V87A, S95N, Y100R
B12: F1245-7-1 (antibody, from a related filing, V domains shown)
VH: QVQLQQPGAELVKPGASVKLSCKASGYTFTSYWMHWVKQRPGQGLEWIGMIHPNSGSTNYNEKFKSKATLTVDKSSSTAYMQLSSLTSEDSAVYYCASPVTAVVEYYFDYWGQGTTLTVSS
VL: SIVMTQTPKFLLVSAGDRVTITCKASQSVSNDVAWYQQKPGQSPKLLIYYASNRYTGVPDRFTGSGYGTDFTFTISTVQAEDLAVYFCQQDYSSLTFGSGTKLEIKR

Numbering of substitutions follows the chain as printed.

Sequence of rat GPVI-hFc fusion protein (rat; mouse; human) (P0C191 205-265): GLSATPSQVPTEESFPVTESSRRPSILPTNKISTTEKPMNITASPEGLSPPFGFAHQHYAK

The first test addresses hGPVI-mL9-hFc substituted mutant protein (human) (UniProt Q9HCN6). Description: ELISA, immobilized hGPVI-mL9-hFc. (In general: An ELISA detects its analyte on a solid surface through an enzyme-linked reagent.)
In turn, B1 showed an absorbance of less than 0.5 od.
Consider B2, for which the absorbance is less than 0.5 od.
B3 had an absorbance of less than 0.5 od.
B4 showed an absorbance of less than 0.5 od.
Still for that read-out and setting: next, B5: less than 0.5 od; B6: less than 0.5 od; B7: less than 0.5 od.
On the same count and under the same terms, for B8 the value was less than 0.5 od; for B9, less than 0.5 od; for B10, less than 0.5 od.
Still for that read-out and setting: for B11 the value was less than 0.5 od.
B12 returned an absorbance of less than 0.5 od.

Another test addresses rat GPVI-hFc fusion protein (rat; mouse; human). Description: ELISA, immobilized rat GPVI-hFc, control.
In turn, normal mouse IgG (antibody) showed an absorbance at 450 nm (absorbance 450 nm) of 0.123.
Still for that read-out and setting: for B6 the value was 0.137.

For another test, the target named is human GPVI-hFc fusion protein (human) (UniProt Q9HCN6). Nature of the test: ELISA, immobilized hGPVI-hFc; ++ = absorbance 1.0 to 2.0.
In turn, B3 yielded an absorbance of 1 to 2 od.
Still for that read-out and setting: next, B4: 1 to 2 od; B5: 1 to 2 od.
B10 registered an absorbance of 1 to 2 od.
Take B12: the absorbance fell in the range of 1 to 2 od.

For a further test the target is unchanged. Description: ELISA, immobilized hGPVI-hFc; + = absorbance 0.5 up to 1.0.
On to B11, for which the absorbance is 0.5 to 1 od.

Another test has the same target. Nature of the test: ELISA, immobilized hGPVI-hFc; +++ = absorbance greater than 2.0.
Consider B1, for which the absorbance was more than 2 od.
The same measure, in the same setting: next, B2: more than 2 od; B7: more than 2 od; B8: more than 2 od.
Same read-out and setting: next, B9: more than 2 od.

For the origin of these results see US20130011868A1.
